# Measurements reported in patent publication US20180044653A1, “Mutant Yeast Strain Capable of Degrading Cellobiose” (Institut National de la Recherche Agronomique, priority 2015, published 2018).
# B1: Yarrowia lipolytica β-glucosidase Bgl2 (YALI_BGL2, YALI0B14289g, SEQ ID NO: 6; mature SEQ ID NO: 2), native (Yarrowia lipolytica CLIB122) (protein)
# chain: DPFSDKDAYKHSPPYYPAPEIGRVPTDLRWRAALKVAQGMVANMTLLEKVNITTGTGWEMGPCVGNTGTVERLGIKSLCLQDGPLGIRFADLITTFPAGITIASTFSRQLVRERGAAMGRENRRKGVDITLSPVVGPLGRHANGGRIWEGFSADPYLAGKLAAEAVTGIQGQNVMAVVKHMVGNEQEHFRQLGEWQGFGFKDLKQPLSSNIDDRTLNEAYLWPFADAVRANVGSVMCSYQQINGSQGCQNAHILNGKLKEEMGFQGFVMSDWLAQRSGVASVLAGLDMSMPGDGLVWADGVPLMGYELTRSVLNGTIDESRVDDMVTRILTPILYLSITPTDPNFSSWTNDTTSYKYYGAKAGGNVTVNRHIDVRDQYTTKAALDGANAALVLLKNEKKTLPLNPTNIGNLNIFGIGSKTGPLGAVCGENMQCSDGALIEGWGSGSVYPTDYQSPYDAIKERASKDNITIGGTTQSWGNLSNVEILSAAADASVVFVLSDSGESTGIVDGNIGDRNNLTLWHNGDEVVKAVASKNPNTIVVVTTVGPVNLEKWIDNPNVTAVLLTGPAGDFGGRAAASILFGDIAPSGKLPFTIAKNDTDYIPLTTKIPEDGLPQDYFTEGTLLDYKRFDENQVTPRFEFGYGLSYSNITVENLEARYAFPSIPEFLPTPFAPSNPNKPKNAFTPHANESVFPSDIDPLNKYVYPYLNDTSEIFSNETHYPYPEGYSSEQSNSTNINGGAVGGNPALWLSAVYIVHSVSNYGPYDTGVVTQMYIAFPQDNDDLKTAPRQLRGFERSELKVGERQGILYDVQWRDLAVWDVKLQSWRVQRGEYKVYVGHSSRDFVLTTSFTLK
# B2: Bgl1: β-glucosidase of Y. lipolytica encoded by BGL1 (YALI0F16027g), SEQ ID NO: 4, mainly periplasmic (protein, listed as Yarrowia lipolytica)
# chain: MIFSLQLLLTTALAASSPDWYPTPEIGSITSDWADALGESMDILAQLTLPEKVNITTGTGWRGGQCVGNTGAVPRLGIKGLCLQDGPLGVRFADFVNVFPCQNAMAATFDRILVHQRGTAIGRQSRLKGVDVHLGPVVGPLGRHATGGRNWEGFSPDPYLSGKLAFEAILGVQEEGVLATIKHFIGNEQEHYRRAEEWRDGFGFKDLKDAVSSNIEDRALHELYMWPFADAVRANVGSVMCSYNYVNGTQACQNSDLLNGKLKSELGFQGFVMSDWFAQGSGVSNALAGMDMSMPGNDVDELETVFWGEQLTRMVANGTLPEARLDDMVLRILTPLIYFGIDDRTPNFSSFVDTTVGSPHPAAKHSKKVKDVITNYHLDVRDQFAANVALDSARGAVVLLFNDGILPLKNISAIGVFGVGSRLGPNGAVCGENMQCSDGALIEGWGSGTAYPTEYESPYEALHKKASLLEVSVTGTTESWDMRLPLELAGDTDVNIVYVLANSGESTANVDKNLGDRRNVSLWHNGDELINTVASQGQTVVVVTTVGQVDMTAWLNHPNISAVLLTAPAGDYGGKAIADVLFGEVNPSGKLPYTIAANTSDYIPIVTKIPRDGAPQSDFVEGIYLDYKWYDKFERTPLYEFGYGLSYTTYSFSNLHLDVKEISEFLPPRPVPVQVTKPKMTNIDIEDLYVPNDFKMIDGLVYPWILNASAPLADSQTQFPFANGAGHVSDASGGVGGHPWLWSNAVTVTHNTTNCGDVAGRVVSQLYVAFPETLIDSPPVQLRGFDKSKLLNPGESQMTEYNLNWRDLAIWDVELQSWRVQRGEYSVYIGHSSREFELCETFTL
# Key:
# [1] = substrate: OC[C@H]1O[C@@H](OC[C@H]2OC(O)[C@H](O)[C@@H](O)[C@@H]2O)[C@H](O)[C@@H](O)[C@@H]1O; experiment: purified protein, by the assay type; conditions: other: apparent; 0.13 nM Bgl2; released glucose; mean of three experiments, SD below 10%
# [2] = substrate: OC[C@H]1O[C@@H](O[C@H]2C(O)O[C@H](CO)[C@@H](O)[C@@H]2O)[C@H](O)[C@@H](O)[C@@H]1O; experiment: purified protein, by the assay type; conditions: other: apparent; 0.13 nM Bgl2; released glucose; mean of three experiments, SD below 10%
# [3] = substrate: OC[C@H]1O[C@@H](O[C@H]2[C@H](O)[C@@H](CO)OC(O)[C@@H]2O)[C@H](O)[C@@H](O)[C@@H]1O; experiment: purified protein, by the assay type; conditions: other: apparent; 0.13 nM Bgl2; released glucose; mean of three experiments, SD below 10%
# [4] = substrate: OC[C@H]1O[C@@H](O[C@H]2[C@H](O)[C@@H](O)[C@H](O[C@H]3[C@H](O)[C@@H](O)C(O)O[C@@H]3CO)O[C@@H]2CO)[C@H](O)[C@@H](O)[C@@H]1O; experiment: purified protein, by the assay type; conditions: other: apparent; 0.13 nM Bgl2; released glucose; mean of three experiments, SD below 10%
# [5] = substrate: OC[C@H]1O[C@@H](O[C@H]2[C@H](O)[C@@H](O)[C@H](O[C@H]3[C@H](O)[C@@H](O)[C@H](O[C@H]4[C@H](O)[C@@H](O)C(O)O[C@@H]4CO)O[C@@H]3CO)O[C@@H]2CO)[C@H](O)[C@@H](O)[C@@H]1O; experiment: purified protein, by the assay type; conditions: other: apparent; 0.13 nM Bgl2; released glucose; mean of three experiments, SD below 10%
# [6] = substrate: OC[C@H]1O[C@@H](O[C@H]2[C@H](O)[C@@H](O)[C@H](O[C@H]3[C@H](O)[C@@H](O)[C@H](O[C@H]4[C@H](O)[C@@H](O)[C@H](O[C@H]5[C@H](O)[C@@H](O)[C@H](O[C@H]6[C@H](O)[C@@H](O)C(O)O[C@@H]6CO)O[C@@H]5CO)O[C@@H]4CO)O[C@@H]3CO)O[C@@H]2CO)[C@H](O)[C@@H](O)[C@@H]1O; experiment: purified protein, by the assay type; conditions: other: apparent; 0.13 nM Bgl2; released glucose; mean of three experiments, SD below 10%
# [7] = substrate: CCCCCCCCO[C@@H]1O[C@H](CO)[C@@H](O)[C@H](O)[C@H]1O; experiment: Enzyme kinetics on glycoside substrates, released glucose, Michaelis-Menten (Bgl2); type: biochemical, Yarrowia lipolytica; conditions: other: apparent, 0.13 nM Bgl2, mean of three experiments, SD below 10%
# From the text: (§2) When using aryl-substrates, the standard assay method was employed, simply replacing pNPGlc by another substrate as appropriate. For oligosaccharides, the release of glucose was quantified using an enzyme kit (D-Fructose/D-Glucose Assay Kit, liquid stable, Megazyme). […] Initial rates were fitted to the Michaelis-Menten kinetic equation using a nonlinear regression (SigmaPlot 10) to extract the apparent KM and kcat (Segel, 1993).
# [8] = substrate: OC[C@H]1O[C@@H](O[C@H]2[C@H](O)[C@@H](O)C(O)O[C@@H]2CO)[C@H](O)[C@@H](O)[C@@H]1O; experiment: as above; type: biochemical, Yarrowia lipolytica; conditions: other: apparent, 0.13 nM Bgl2, mean of three experiments, SD below 10%
# From the text: as §2
# [9] = substrate: OC[C@H]1O[C@@H](O[C@H]2[C@H](O)[C@@H](O)[C@H](O[C@H]3[C@H](O)[C@@H](O)[C@H](O[C@H]4[C@H](O)[C@@H](O)[C@H](O[C@H]5[C@H](O)[C@@H](O)C(O)O[C@@H]5CO)O[C@@H]4CO)O[C@@H]3CO)O[C@@H]2CO)[C@H](O)[C@@H](O)[C@@H]1O; experiment: as above; type: biochemical, Yarrowia lipolytica; conditions: other: apparent, 0.13 nM Bgl2, mean of three experiments, SD below 10%
# From the text: as §2
# [10] = β-Glucosidase activity, release of pNP from pNPGlc; type: biochemical
# Procedure: β-Glucosidase activity was measured by quantifying the release of pNP (p-nitroplienol) from pNPGlc as described previously (Guo et al., 2011). One unit of pNPGlcase activity was defined as the amount of enzyme required to release 1 μmol pNP per min. Cellobiose phosphorylase activity was assayed by measuring the formation of Glc-1P from cellobiose as described previously (Reichenbecher et al., 1997). One unit of activity (U) was defined as the amount of enzyme required to release 1 μmol Glc-1P per min. All protein concentrations were measured using the Bradford method and bovine serum albumin as a standard (Bradford, 1976).
# [11] = Subcellular fractionation and enzyme localization, activity assayed with pNPGlc; type: biochemical, Y. lipolytica
# Procedure: Fractionation of yeast cells was carried out as described by Cummings and Fowler (1996), with slight modifications. Briefly, yeasts were cultivated until a cellular density of 6×10^7 cells/mL was reached. Then, to quantify total β-glucosidase activity, a 50 mL sample was taken and subjected to centrifugation at 8,000×g for 5 min at 4° C. thus isolating a cell pellet and supernatant. The cell pellet was disrupted in Tris-HCl buffer (50 mM, pH 7.4, 3 mM EDTA and 0.5 mM PMSF) using a MP FastPrep-24 Instrument (MP Biomedicals Inc.). β-Glucosidase activity in both the cell lysate and the supernatant was determined as described earlier in order to estimate total β-glucosidase activity. Using a second 50 mL yeast culture, a cell pellet containing approximately 2×10^8 cells/mL was obtained by centrifugation and then treated with zymolyase 100T at 10 mg/mL (Seikagaku corp roger) in 15 mL of sorbitol buffer (1 M sorbitol, 50 mM Tris-HCl, pH 7.4, 2 mM dithiothreitol, 10 mM MgCl2, 20 mM-sodium azide, 0.5 mM PMSF) at 30° C. with gentle shaking. Protoplast formation was monitored using a microscope until ≧99% of the cells was lysed when. SDS was added (1% SDS w/v). The solid protoplast fraction was then separated from the supernatant by centrifugation (1000 rpm for 5 min at 4° C.) and the latter was designated as the periplasmic fraction. The protoplasts were re-suspended in Tris-HCl buffer (50 mM Tris-HCl, pH 7.4) and disrupted by vortex in the presence of glass beads (0.4-0.45 mm). The homogenate was centrifuged (20,000×g for 2 h at 4° C.) and the supernatant and solid fractions were designated as the cytoplasmic and membrane fraction respectively. Prior to enzyme assays, the membrane fraction was suspended in citrate buffer.
# Activity was assayed with pNPGlc.
# [12] = Specific activity on cellobiose; type: biochemical
# From the text: (§1) When using aryl-substrates, the standard assay method was employed, simply replacing pNPGlc by another substrate as appropriate. For oligosaccharides, the release of glucose was quantified using an enzyme kit (D-Fructose/D-Glucose Assay Kit, liquid stable, Megazyme).
# [13] = Michaelis-Menten kinetics (glucose release); type: biochemical; conditions: cellobiose
# From the text: as §1
molecule,measurement,setting,value
B1,Km,[1],1840 µM
same,kcat,[1],186.5 s⁻¹
same,kcat/Km,[1],101000 M⁻¹ s⁻¹
same,Km,[2],2400 µM
same,kcat,[2],41.2 s⁻¹
same,kcat/Km,[2],17200 M⁻¹ s⁻¹
same,Km,[3],890 µM
same,kcat,[3],211.1 s⁻¹
same,kcat/Km,[3],237000 M⁻¹ s⁻¹
same,Km,[4],990 µM
same,kcat,[4],9.5 s⁻¹
same,kcat/Km,[4],9600 M⁻¹ s⁻¹
same,Km,[5],1860 µM
same,kcat,[5],20.6 s⁻¹
same,kcat/Km,[5],11000 M⁻¹ s⁻¹
same,Km,[6],2370 µM
same,kcat,[6],30.5 s⁻¹
same,kcat/Km,[6],12900 M⁻¹ s⁻¹
same,Km,[7],1300 µM
same,kcat,[7],111.1 s⁻¹
same,kcat/Km,[7],85200 M⁻¹ s⁻¹
same,Km,[8],790 µM
same,kcat,[8],5.1 s⁻¹
same,kcat/Km,[8],6500 M⁻¹ s⁻¹
same,Km,[9],2240 µM
same,kcat,[9],27.5 s⁻¹
same,kcat/Km,[9],12300 M⁻¹ s⁻¹
B2,fold more active on pNPGlc than Bgl2,[10],5 fold
same,activity on pNPGlc of purified enzyme,"[10]; preliminary characterization, pNPGlc as substrate",102.8 U/mg
same,"Relative enzyme activity, Cytoplasm",[11]; fraction: Cytoplasm,30.0 ± 0.5%
same,"Relative enzyme activity, Growth medium",[11]; fraction: Growth medium,2.3 ± 0.4%
same,"Relative enzyme activity, Membrane",[11]; fraction: Membrane,8.1 ± 0.7%
same,"Relative enzyme activity, Periplasm",[11]; fraction: Periplasm,60.7 ± 1.0%
same,"Relative enzyme activity, Total",[11]; fraction: Total,100%
same,specific activity on cellobiose,[12],108 units/mg protein
same,KM fold lower than those of β-glucosidases from S. fibuligera and A. niger,[13],approximately 10 fold
